The data set can be described thus: Clearance experiments in mice, pharmacokinetic profiles. To be noted: mice; for MRT: mean residence time, noncompartmental model. The protocol: The pharmacokinetic profiles of non-modified and various preparations of PEG-modified AChE were resolved. Clearance experiments in mice (3 to 6 ICR male mice per enzyme sample) and analysis of pharmacokinetic profiles were carried out as described essentially previously [Kronman, C., et al. (1992), Gene 121, 295-304]. The study was approved by the local ethical committee on animal experiments. Mice were injected with the various rHuAChE preparations (40 μg/mouse in 0.2 ml PBS). Residual AChE activity in blood samples was measured and all values were corrected for background hydrolytic activity in the blood (using samples withdrawn 1 hour before performing the experiment). AChE activity values in samples removed immediately after injection were assigned a value of 100% and used for calculation of residual activity. […] This model enables determination of the parameters A and B which represent the fractions of the material removed from the circulation in the first-fast and second-slow elimination phases respectively, and T1/2α and T1/2β which represent the circulatory half-life values of the enzyme in the fast and slow phases. The pharmacokinetic parameters MRT (mean residence time, which reflects the average length of time the administered molecules are retained in the organism) and CL (clearance, which represents the proportionality factor relating the rate of substance elimination to its plasma concentration (CL=dose/area under the concentration-time curve), were independently obtained by analyzing the clearance data according to a noncompartmental pharmacokinetic model using the WinNonlin computer program. The comparative results are set forth in Table 3 below.

B1: partially desialylated BChE (protein, UniProt P06276 29-602, looked up)
Cholinesterase: EDDIIIATKNGKVRGMNLTVFGGTVTAFLGIPYAQPPLGRLRFKKPQSLTKWSDIWNATKYANSCCQNIDQSFPGFHGSEMWNPNTDLSEDCLYLNVWIPAPKPKNATVLIWIYGGGFQTGTSSLHVYDGKFLARVERVIVVSMNYRVGALGFLALPGNPEAPGNMGLFDQQLALQWVQKNIAAFGGNPKSVTLFGESAGAASVSLHLLSPGSHSLFTRAILQSGSFNAPWAVTSLYEARNRTLNLAKLTGCSRENETEIIKCLRNKDPQEILLNEAFVVPYGTPLSVNFGPTVDGDFLTDMPDILLELGQFKKTQILVGVNKDEGTAFLVYGAPGFSKDNNSIITRKEFQEGLKIFFPGVSEFGKESILFHYTDWVDDQRPENYREALGDVVGDYNFICPALEFTKKFSEWGNNAFFYYFEHRSSKLPWPEWMGVMHGYEIEFVFGLPLERRDNYTKAEEILSRSIVKRWANFAKYGNPNETQNNSTSWPVFKSTEQKYLTLNTESTRIMTKLRAQQCRFWTSFFPKVLEMTGNIDEAEWEWKAGFHRWNNYMMDWKNQFNDYTSKKESCVGL
modifications: partially desialylated
B1 yielded an MRT of 2.67 h.

B2: non-treated serum-derived BChE (protein, UniProt P06276 29-602, looked up)
Cholinesterase: EDDIIIATKNGKVRGMNLTVFGGTVTAFLGIPYAQPPLGRLRFKKPQSLTKWSDIWNATKYANSCCQNIDQSFPGFHGSEMWNPNTDLSEDCLYLNVWIPAPKPKNATVLIWIYGGGFQTGTSSLHVYDGKFLARVERVIVVSMNYRVGALGFLALPGNPEAPGNMGLFDQQLALQWVQKNIAAFGGNPKSVTLFGESAGAASVSLHLLSPGSHSLFTRAILQSGSFNAPWAVTSLYEARNRTLNLAKLTGCSRENETEIIKCLRNKDPQEILLNEAFVVPYGTPLSVNFGPTVDGDFLTDMPDILLELGQFKKTQILVGVNKDEGTAFLVYGAPGFSKDNNSIITRKEFQEGLKIFFPGVSEFGKESILFHYTDWVDDQRPENYREALGDVVGDYNFICPALEFTKKFSEWGNNAFFYYFEHRSSKLPWPEWMGVMHGYEIEFVFGLPLERRDNYTKAEEILSRSIVKRWANFAKYGNPNETQNNSTSWPVFKSTEQKYLTLNTESTRIMTKLRAQQCRFWTSFFPKVLEMTGNIDEAEWEWKAGFHRWNNYMMDWKNQFNDYTSKKESCVGL
For B2, the “circulatory residence time (in words)” value was “resides in the circulation for extended periods of time”.

B3: FBS-AChE (protein, UniProt P23795 31-613, looked up)
Acetylcholinesterase: EGPEDPELLVMVRGGRLRGLRLMAPRGPVSAFLGIPFAEPPVGPRRFLPPEPKRPWPGVLNATAFQSVCYQYVDTLYPGFEGTEMWNPNRELSEDCLYLNVWTPYPRPSSPTPVLVWIYGGGFYSGASSLDVYDGRFLTQAEGTVLVSMNYRVGAFGFLALPGSREAPGNVGLLDQRLALQWVQENVAAFGGDPTSVTLFGESAGAASVGMHLLSPPSRGLFHRAVLQSGAPNGPWATVGVGEARRRATLLARLVGCPPGGAGGNDTELVACLRARPAQDLVDHEWRVLPQESVFRFSFVPVVDGDFLSDTPEALINAGDFHGLQVLVGVVKDEGSYFLVYGAPGFSKDNESLISRAQFLAGVRVGVPQASDLAAEAVVLHYTDWLHPEDPARLREALSDVVGDHNVVCPVAQLAGRLAAQGARVYAYIFEHRASTLSWPLWMGVPHGYEIEFIFGLPLEPSLNYTIEERTFAQRLMRYWANFARTGDPNDPRDPKAPQWPPYTAGAQQYVSLNLRPLEVRRGLRAQACAFWNRFLPKLLSATDTLDEAERQWKAEFHRWSSYMVHWKNQFDHYSKQDRCSDL
Regarding B3, the mean residence time (MRT) amounted to 22.33 h.

B4: PEG modified FBS-AChE (conjugate, UniProt P23795 31-613, looked up)
Acetylcholinesterase: EGPEDPELLVMVRGGRLRGLRLMAPRGPVSAFLGIPFAEPPVGPRRFLPPEPKRPWPGVLNATAFQSVCYQYVDTLYPGFEGTEMWNPNRELSEDCLYLNVWTPYPRPSSPTPVLVWIYGGGFYSGASSLDVYDGRFLTQAEGTVLVSMNYRVGAFGFLALPGSREAPGNVGLLDQRLALQWVQENVAAFGGDPTSVTLFGESAGAASVGMHLLSPPSRGLFHRAVLQSGAPNGPWATVGVGEARRRATLLARLVGCPPGGAGGNDTELVACLRARPAQDLVDHEWRVLPQESVFRFSFVPVVDGDFLSDTPEALINAGDFHGLQVLVGVVKDEGSYFLVYGAPGFSKDNESLISRAQFLAGVRVGVPQASDLAAEAVVLHYTDWLHPEDPARLREALSDVVGDHNVVCPVAQLAGRLAAQGARVYAYIFEHRASTLSWPLWMGVPHGYEIEFIFGLPLEPSLNYTIEERTFAQRLMRYWANFARTGDPNDPRDPKAPQWPPYTAGAQQYVSLNLRPLEVRRGLRAQACAFWNRFLPKLLSATDTLDEAERQWKAEFHRWSSYMVHWKNQFDHYSKQDRCSDL
modifications: PEG
B4: the “pharmacokinetic behavior after modification by PEG versus non-modified enzyme” value is listed as “significantly improved”.

B5: PEG-modified sialidase-treated AChE (conjugate, UniProt P22303 32-614, looked up)
Acetylcholinesterase: EGREDAELLVTVRGGRLRGIRLKTPGGPVSAFLGIPFAEPPMGPRRFLPPEPKQPWSGVVDATTFQSVCYQYVDTLYPGFEGTEMWNPNRELSEDCLYLNVWTPYPRPTSPTPVLVWIYGGGFYSGASSLDVYDGRFLVQAERTVLVSMNYRVGAFGFLALPGSREAPGNVGLLDQRLALQWVQENVAAFGGDPTSVTLFGESAGAASVGMHLLSPPSRGLFHRAVLQSGAPNGPWATVGMGEARRRATQLAHLVGCPPGGTGGNDTELVACLRTRPAQVLVNHEWHVLPQESVFRFSFVPVVDGDFLSDTPEALINAGDFHGLQVLVGVVKDEGSYFLVYGAPGFSKDNESLISRAEFLAGVRVGVPQVSDLAAEAVVLHYTDWLHPEDPARLREALSDVVGDHNVVCPVAQLAGRLAAQGARVYAYVFEHRASTLSWPLWMGVPHGYEIEFIFGIPLDPSRNYTAEEKIFAQRLMRYWANFARTGDPNEPRDPKAPQWPPYTAGAQQYVSLDLRPLEVRRGLRAQACAFWNRFLPKLLSATDTLDEAERQWKAEFHRWSSYMVHWKNQFDHYSKQDRCSDL
modifications: PEG; sialidase-treated
As to B5, the “pharmacokinetic behavior after modification by PEG versus non-modified enzyme” value is “significantly improved”.

B6: PEG-modified fully sialylated AChE (conjugate, UniProt P22303 32-614, looked up)
Acetylcholinesterase: EGREDAELLVTVRGGRLRGIRLKTPGGPVSAFLGIPFAEPPMGPRRFLPPEPKQPWSGVVDATTFQSVCYQYVDTLYPGFEGTEMWNPNRELSEDCLYLNVWTPYPRPTSPTPVLVWIYGGGFYSGASSLDVYDGRFLVQAERTVLVSMNYRVGAFGFLALPGSREAPGNVGLLDQRLALQWVQENVAAFGGDPTSVTLFGESAGAASVGMHLLSPPSRGLFHRAVLQSGAPNGPWATVGMGEARRRATQLAHLVGCPPGGTGGNDTELVACLRTRPAQVLVNHEWHVLPQESVFRFSFVPVVDGDFLSDTPEALINAGDFHGLQVLVGVVKDEGSYFLVYGAPGFSKDNESLISRAEFLAGVRVGVPQVSDLAAEAVVLHYTDWLHPEDPARLREALSDVVGDHNVVCPVAQLAGRLAAQGARVYAYVFEHRASTLSWPLWMGVPHGYEIEFIFGIPLDPSRNYTAEEKIFAQRLMRYWANFARTGDPNEPRDPKAPQWPPYTAGAQQYVSLDLRPLEVRRGLRAQACAFWNRFLPKLLSATDTLDEAERQWKAEFHRWSSYMVHWKNQFDHYSKQDRCSDL
modifications: PEG; fully sialylated
B6: the “pharmacokinetic behavior after modification by PEG versus non-modified enzyme” value is reported as “significantly improved”.

B7: PEG-modified non-glycosylated AChE (conjugate, UniProt P22303 32-614, looked up)
Acetylcholinesterase: EGREDAELLVTVRGGRLRGIRLKTPGGPVSAFLGIPFAEPPMGPRRFLPPEPKQPWSGVVDATTFQSVCYQYVDTLYPGFEGTEMWNPNRELSEDCLYLNVWTPYPRPTSPTPVLVWIYGGGFYSGASSLDVYDGRFLVQAERTVLVSMNYRVGAFGFLALPGSREAPGNVGLLDQRLALQWVQENVAAFGGDPTSVTLFGESAGAASVGMHLLSPPSRGLFHRAVLQSGAPNGPWATVGMGEARRRATQLAHLVGCPPGGTGGNDTELVACLRTRPAQVLVNHEWHVLPQESVFRFSFVPVVDGDFLSDTPEALINAGDFHGLQVLVGVVKDEGSYFLVYGAPGFSKDNESLISRAEFLAGVRVGVPQVSDLAAEAVVLHYTDWLHPEDPARLREALSDVVGDHNVVCPVAQLAGRLAAQGARVYAYVFEHRASTLSWPLWMGVPHGYEIEFIFGIPLDPSRNYTAEEKIFAQRLMRYWANFARTGDPNEPRDPKAPQWPPYTAGAQQYVSLDLRPLEVRRGLRAQACAFWNRFLPKLLSATDTLDEAERQWKAEFHRWSSYMVHWKNQFDHYSKQDRCSDL
modifications: PEG; non-glycosylated
With B7, the “pharmacokinetic behavior after modification by PEG versus non-modified enzyme” value was “significantly improved”.

B8: PEG-modified mono-glycosylated AChE (conjugate, UniProt P22303 32-614, looked up)
Acetylcholinesterase: EGREDAELLVTVRGGRLRGIRLKTPGGPVSAFLGIPFAEPPMGPRRFLPPEPKQPWSGVVDATTFQSVCYQYVDTLYPGFEGTEMWNPNRELSEDCLYLNVWTPYPRPTSPTPVLVWIYGGGFYSGASSLDVYDGRFLVQAERTVLVSMNYRVGAFGFLALPGSREAPGNVGLLDQRLALQWVQENVAAFGGDPTSVTLFGESAGAASVGMHLLSPPSRGLFHRAVLQSGAPNGPWATVGMGEARRRATQLAHLVGCPPGGTGGNDTELVACLRTRPAQVLVNHEWHVLPQESVFRFSFVPVVDGDFLSDTPEALINAGDFHGLQVLVGVVKDEGSYFLVYGAPGFSKDNESLISRAEFLAGVRVGVPQVSDLAAEAVVLHYTDWLHPEDPARLREALSDVVGDHNVVCPVAQLAGRLAAQGARVYAYVFEHRASTLSWPLWMGVPHGYEIEFIFGIPLDPSRNYTAEEKIFAQRLMRYWANFARTGDPNEPRDPKAPQWPPYTAGAQQYVSLDLRPLEVRRGLRAQACAFWNRFLPKLLSATDTLDEAERQWKAEFHRWSSYMVHWKNQFDHYSKQDRCSDL
modifications: PEG; mono-glycosylated
Consider B8, for which the “pharmacokinetic behavior after modification by PEG versus non-modified enzyme” value is “significantly improved”.

Source of the values: patent US7572764B2, “Uses of chemically-modified cholinesterases for detoxification of organophosporus compounds” (priority 2001, dated 2009).
